Earlier results, collected in publication PMC4554922.

Target: SAS-6 head domain (UniProt Q6UVJ0)

Substance: SAS-6 head domain (from UniProt Q6UVJ0)
- Kd: 80 µM
